Measurements reported in patent publication US20230257454A1 (STAIDSON BEIJING BIOPHARMACEUTICALS, published 2023).

T1: human C5a (source not stated) (human, UniProt P01031 678-751)
T1 sequence: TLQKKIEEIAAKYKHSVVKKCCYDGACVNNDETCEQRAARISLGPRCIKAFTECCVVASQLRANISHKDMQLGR


Biological target: T1, human C5a (source not stated)
Experiment: cell-based or functional assay

Binder	ROS IC50
Cab15 scFv (scFv, V domains shown) VH: VVQLVESGGGLVQPGGSLKVSCAASGFTFSDYYMQWVRQAPGKGPEWVGLIRNKAIGETTEYAASVKGRFTISRDDSKSIVYLQMSSLKPEDTAVYYCAGRLGPPGLSWGQGVLVTVSS VL: DIVMTQNPLSLPVTPGEPASISCRSSQSLLATDGYTYLDWYLQKPGQSPQVLIYGGSKRASGVPDRFSGSGSGTDFTLKITKVEAEDVGIYYCMQHKALPPTFGQGTKLEIK	0.64 nM
Cab01 scFv (scFv, V domains shown) VH: EVQLVESGGGMVQPGGSLRVSCAASGFTFTKYYMQWVRQAPGKGPEWVGLIRNKANGGTAEYVASVKDRFTISRDDSKSIAYLQMSSLKTEDTAVYYCVMRDNGYHWGQGVLVTVSS VL: DIVLTQTPLSLPVTPGEPASISCRSSQRLLHSDGYTYLDWYLQKPGQSPQLLIYGGSNRASGVPDRFSGSGSGTDFTLKISKVEAEDVGVYYCMQHKALPLTFGGGTKVEIK	1.51 nM
Cab13 scFv (scFv, V domains shown) VH: VVQLVESGGGLVQPGGSLKVSCAASGFTFSDYYMQWVRQAPGKGPEWVGLIRNKAIGGTTQYAASVKGRFTISRDDSKSIVYLQMSSLKTEDTAVYYCVSRAGPPGLSWGQGVLVTISS VL: DIVMIQNPLSLPVTPGEPASISCRSSQSLLASDGYNYMDWYLQKPGQSPKVLIYGGSNRASGVPDRFSGSGSGTDFTLKITKVEAEDVGIYYCMQHKVLPPTFGQGTKLEIK	1.08 nM
Cab21 scFv (scFv, V domains shown) VH: EVQLVQSGGGLVQPGGSLKVSCAASGFIFSNYYIQWVRQAPGKGPEWVGLIRNKAIGETTEFAASVKGRFTISRDDSKSIVYLQMTRLKTEDTAVYYCAGRLGPPGLTWGQGVLVTISS VL: DAVMTQTPLSLPVTPGEPASISCRSSQSLLASDGYNYIDWYLQRPGQSPKVLIYGGSNRASGVPDRFSGSGSGTYFTLKISKVEAEDVGFYFCLQHRALPPTFGQGTKLEIK	0.84 nM

Biological target: T1, human C5a (source not stated)
Experiment: cell-based or functional assay
Remark: another data set of the same source

Binder	ROS IC50
Cab14 scFv (scFv, V domains shown) VH: VVQLVESGGGLVQPGGSLKVSCATSGFTFSDYYMQWVRQAPGKGPEWLGLIRNKAIGGTTQYAASVKGRFTISRDDSKGIAYLQMSSLKTEDTAVYYCVCRAGPPGLSWGQGVLVTVSS VL: DIELTQTPLSRPVTPGEPASISCRSSQSLLHTDGYTYLDWYLQKPGQSPQLLIYGGSNRASGVPDRFSGSGSGTDFTLKISKVEAEDVGVYYCMQHKALPLTFGGGTKLEIK	1.2 nM
Cab18 scFv (scFv, V domains shown) VH: VVQLVESGGGLVQPGGSLKVSCAASGFTFSDYYMQWVRQAPGKGPEWVGLIRNKAIGETTQYAASVKGRFTISRDDSKSIVYLQMSSLKTEDTAVYYCVSRAGPPGLSWGQGVLVTVSS VL: DIVMTQNPLSLPVTPGEPASISCRSSQSLLDSNRYAYVDWYLQKPGQSPQILVYGGSNRASGVPDRFSGSGSGTDFTLKISKVEAEDVGIYYCMQHKVLPPTFGQGTKLEIK	1.36 nM
Cab31 scFv (scFv, V domains shown) VH: DMQLVESGGGLVQPGGSLKVSCAASGFTFSDYYMQWVRQAPGKGPEWVGLIRNKAVGGTTQYAASVKGRFTISRDDSKSIVYLEMSSLKTEDTAVYYCVSRAGPPGLSWGQGVLVTVSS VL: DTVMSQIPLSLPVTPGEPASISCRSSQSLLHSDGYTYMDWYLQKPGQSPQLLIYGGSNRASGVPDRFSGSGSGTDFTLKISKVEAEDVGVYYCMQHKVLPPTFGQGTRLEIK	1.26 nM
Cab02 scFv (scFv, V domains shown) VH: EVQLVESGGGLVQPGGSLKVSCAASGFIFSDYYMQWVRQAPGKGPEWVGLIRKKVNGGTTEYAASVKGRFTISRDDSKSIAYLQMSSLKIEDTAVYYCVSRAGPPGLTWGQGVLVTISS VL: DIVMIQTPLSLPVTPGEPASISCRSSQRLLHSDGYTYLDWYLQKPGQSPQLLIYGGSNRASGVPDRFSGSGSGTDFTLKISKVEAEDVGVYYCMQHKALPLTFGGGTKLEIK	1.67 nM
Cab30 scFv (scFv, V domains shown) VH: DMQLVESGGGLVQPGGSLKVSCAASGFTFSDYYMQWVRQAPGKGPEWVGLIRNKAVGGTTQYAASVKGRFTISRDDSKSIVYLEMSSLKTEDTAVYYCVSRAGPPGLSWGQGVLVTVSS VL: DIVMTQTPLSLPVTPGEPASISCRSSQSLLHSDGYTYLDWYLQRPGQSPHLLIYGGSNRASGVPDRFSGSGSGTDFTLKISKVEAEDVGVYYCMQHKVLPPTFGQGTKLEIK	1.18 nM
Cab29 scFv (scFv, V domains shown) VH: DMQLVESGGGLVQPGGSLKVSCAASGFTFSDYYMQWVRQAPGKGPEWVGLIRNKAVGGTTQYAASVKGRFTISRDDSKSIVYLEMSSLKTEDTAVYYCVSRAGPPGLSWGQGVLVTVSS VL: DIVMIQNPLSLSVSLGEPASISCRSSQSLLATDGYEYLDWYLQKPGQSPQILIYGASNRASGVPDRFSGRGSGTDFTLKITKVEAEDVGVYYCLQHKALPPTFGQGTKLEIK	0.96 nM
Cab19 scFv (scFv, V domains shown) VH: EVQLVESGGGLVQPGGSLKVSCVASGFTFSDYYIQWVRQAPGKGPEWVGLIRNKAVGGTTSYAASVKGRFTISRDDSKSVAYLQMTSLKTEDTAVYFCVSRAGPPGLSWGQGVLVTVSS VL: DIVMIQNPLSLPVTPGEPASISCRSSQSLLHSDGYTYLDWYQQKPGQAPQLLIYGGSNRASGVPDRFSGSGSATDFTLKISKMEAEDVGVYYCMQHKALPPTFGGGTKVEIK	1.32 nM
Cab17 scFv (scFv, V domains shown) VH: VVQLVESGGGLVLPGGSLKVSCAASGFIFSDYYIQWVRQAPGKGPEWVGLIRNKAVGETVQYAASLKGRFTISRDDSKSIAYLQMTSLKTEDTAMYYCVSRAGPPGLTWGQGVLVTVSS VL: DIVMIQNPLSLSVTPGEPASISCRSSQRLLASDGYTYVDWYLQKPGQSPQILIYGGSNRASGVPDRFSGSGSGTDFTLKISKVEAEDVGVYYCMQHKALPPTFGQGTKLEIK	1.87 nM
Cab39 (reformatted as human IgG1) (antibody, V domains shown) VH: EMQLVESGGGLVQPGGSLRLSCAASGFTFSDYYMQWVRQAPGKGPEWVGLIRNKAVGITTQYAASVKGRFTISRDDSKNSVYLQMNSLKTEDTAVYYCVSRAGPPGLSWGQGVLVTVSS VL: DIVMTQSPLSLPVTPGEPASISCRSSQSLLASDGYNYIDWYLQKPGQSPQLLIYGGSNRASGVPDRFSGSGSGTDFTLKISRVEAEDVGVYFCLQHRALPPTFGQGTKLEIK	0.91 nM
Cab46 (reformatted as human IgG1) (antibody, V domains shown) VH: EVQLVESGGGLVQPGGSLRLSCAASGFTFSDYYIQWVRQAPGKGPEWVGLIRNKAVGGTTTYAASVKGRFTISRDDSKNSAYLQMNSLKTEDTAVYFCVSRAGPPGLSWGQGVLVTVSS VL: DIVMTQSPLSLPVTPGEPASISCRSSQSLLATDGYEYLDWYLQKPGQSPQLLIYGASNRASGVPDRFSGSGSGTDFTLKISRVEAEDVGVYYCLQHKALPPTFGQGTKLEIK	0.66 nM
Cab33 (reformatted as human IgG1) (antibody, V domains shown) VH: EMQLVESGGGLVQPGGSLRLSCAASGFTFSDYYMQWVRQAPGKGPEWVGLIRNKAVGGTTQYAASVKGRFTISRDDSKNSVYLQMNSLKTEDTAVYYCVSRAGPPGLSWGQGVLVTVSS VL: DIVMTQSPLSLPVTPGEPASISCRSSQSLLASDGYNYIDWYLQKPGQSPQLLIYGGSNRASGVPDRFSGSGSGTDFTLKISRVEAEDVGVYFCLQHKALPPTFGQGTKLEIK	1.7 nM
Cab32 (reformatted as human IgG1) (antibody, V domains shown) VH: EMQLVESGGGLVQPGGSLRLSCAASGFTFSDYYMQWVRQAPGKGPEWVGLIRNKAVGGTTQYAASVKGRFTISRDDSKNSVYLQMNSLKTEDTAVYYCVSRAGPPGLSWGQGVLVTVSS VL: DIVMTQSPLSLPVTPGEPASISCRSSQSLLASDGYIYIDWYLQKPGQSPQLLIYGGSNRASGVPDRFSGSGSGTDFTLKISRVEAEDVGVYFCLQHRALPPTFGQGTKLEIK	1.76 nM
Cab34 (reformatted as human IgG1) (antibody, V domains shown) VH: EMQLVESGGGLVQPGGSLRLSCAASGFTFSDYYMQWVRQAPGKGPEWVGLIRNKAVGGTTEYAASVKGRFTISRDDSKNSVYLQMNSLKTEDTAVYYCVSRAGPPGLSWGQGVLVTVSS VL: DIVMTQSPLSLPVTPGEPASISCRSSQSLLASDGYNYIDWYLQKPGQSPQLLIYGGSNRASGVPDRFSGSGSGTDFTLKISRVEAEDVGVYFCLQHRALPPTFGQGTKLEIK	1.61 nM
Cab41 (reformatted as human IgG1) (antibody, V domains shown) VH: EMQLVESGGGLVQPGGSLRLSCAASGFTFSDYYMQWVRQAPGKGPEWVGLIRNKAVGRTTQYAASVKGRFTISRDDSKNSVYLQMNSLKTEDTAVYYCVSRAGPPGLSWGQGVLVTVSS VL: DIVMTQSPLSLPVTPGEPASISCRSSQSLLASDGYNYIDWYLQKPGQSPQLLIYGGSNRASGVPDRFSGSGSGTDFTLKISRVEAEDVGVYFCLQHRALPPTFGQGTKLEIK	0.7 nM
Cab36 (reformatted as human IgG1) (antibody, V domains shown) VH: EMQLVESGGGLVQPGGSLRLSCAASGFTFSDYYMQWVRQAPGKGPEWVGLIRNKAVGETTEYAASVKGRFTISRDDSKNSVYLQMNSLKTEDTAVYYCVSRAGPPGLSWGQGVLVTVSS VL: DIVMTQSPLSLPVTPGEPASISCRSSQSLLASDGYNYIDWYLQKPGQSPQLLIYGGSNRASGVPDRFSGSGSGTDFTLKISRVEAEDVGVYFCLQHRALPPTFGQGTKLEIK	1.41 nM
Cab40 (reformatted as human IgG1) (antibody, V domains shown) VH: EMQLVESGGGLVQPGGSLRLSCAASGFTFSDYYMQWVRQAPGKGPEWVGLIRNKAVGQTTQYAASVKGRFTISRDDSKNSVYLQMNSLKTEDTAVYYCVSRAGPPGLSWGQGVLVTVSS VL: DIVMTQSPLSLPVTPGEPASISCRSSQSLLASDGYNYIDWYLQKPGQSPQLLIYGGSNRASGVPDRFSGSGSGTDFTLKISRVEAEDVGVYFCLQHRALPPTFGQGTKLEIK	0.7 nM
Cab37 (reformatted as human IgG1) (antibody, V domains shown) VH: EMQLVESGGGLVQPGGSLRLSCAASGFTFSDYYMQWVRQAPGKGPEWVGLIRNKAVGFTTQYAASVKGRFTISRDDSKNSVYLQMNSLKTEDTAVYYCVSRAGPPGLSWGQGVLVTVSS VL: DIVMTQSPLSLPVTPGEPASISCRSSQSLLASDGYNYIDWYLQKPGQSPQLLIYGGSNRASGVPDRFSGSGSGTDFTLKISRVEAEDVGVYFCLQHRALPPTFGQGTKLEIK	0.92 nM
